B1: FoxM1 WT: wild-type FoxM1 protein (SEQ ID NO: 1) over-expressed by lentivirus in A549 cells (protein, listed as Homo sapiens)
chain: MKTSPRRPLILKRRRLPLPVQNAPSETSEEEPKRSPAQQESNQAEASKEVAESNSCKFPAGIKIINHPTMPNTQVVAIPNNANIHSIITALTAKGKESGSSGPNKFILISCGGAPTQPPGLRPQTQTSYDAKRTEVTLETLGPKPAARDVNLPRPPGALCEQKRETCDGEAAGCTINNSLSNIQWLRKMSSDGLGSRSIKQEMEEKENCHLEQRQVKVEEPSRPSASWQNSVSERPPYSYMAMIQFAINSTERKRMTLKDIYTWIEDHFPYFKHIAKPGWKNSIRHNLSLHDMFVRETSANGKVSFWTIHPSANRYLTLDQVFKQQQKRPNPELRRNMTIKTELPLGARRKMKPLLPRVSSYLVPIQFPVNQSLVLQPSVKVPLPLAASLMSSELARHSKRVRIAPKVLLAEEGIAPLSSAGPGKEEKLLFGEGFSPLLPVQTIKEEEIQPGEEMPHLARPIKVESPPLEEWPSPAPSFKEESSHSWEDSSQSPTPRPKKSYSGLRSPTRCVSEMLVIQHRERRERSRSRRKQHLLPPCVDEPELLFSEGPSTSRWAAELPFPADSSDPASQLSYSQEVGGPFKTPIKETLPISSTPSKSVLPRTPESWRLTPPAKVGGLDFSPVQTSQGASDPLPDPLGLMDLSTTPLQSAPPLESPQRLLSSEPLDLISVPFGNSSPSDIDVPKPGSPEPQVSGLAANRSLTEGLVLDTMNDSLSKILLDISFPGLDEDPLGPDNINWSQFIPELQ

How the values were obtained:
A549 lung cancer cells [1] = assay: Transwell migration assay of A549 cells expressing FoxM1 WT or point mutants; assay type: cell-based; conditions: Transwell, 72 hours, control set to 1; TGF-β 5 ng/ml positive control
Protocol: To examine the effects of FoxM1 WT, phosphorylation, and non-phosphorylated point mutants on the motility of cancer cells, the migration assay was performed in A549 lung cancer cells expressing mutant proteins.
Specifically, 5×10^4 cells of lung cancer cells A549 expressing each of WT, phosphorylation, and non-phosphorylated point mutant of FoxM1 were seeded in an 8.0 μm, 24 well insert, and the inserts were placed in a 24-well plate after medium with 10% fetal bovine serum (FBS) was dispensed in the 24-well plate. For the positive control, 0.5 ml of RPMI1640 (10% FBS) containing 5 ng/ml of TGF-β was used. After 72 hours from cell seeding, 500 μl of 4% paraformaldehyde was dispensed, washed three times with 1×PBS, and stained with 0.05% crystal violet solution for 5 minutes. After 5 minutes, the cells were washed five times with 1×PBS, and the staining intensity was measured using the Odyssey infrared imaging system.
Specifically, 5×10^4 cells of lung cancer cells A549 expressing control and FoxM1 WT were seeded in an 8.0 μm, 24 well insert, and the inserts were placed in a 24-well plate after medium with 10% fetal bovine serum (FBS) was dispensed in the 24-well plate. For the positive control, 0.5 ml of RPMI1640 (10% FBS) containing 5 ng/ml of TGF-β was added and used. After 72 hours from cell seeding, 500 μl of 4% paraformaldehyde was dispensed, washed three times with 1×PBS, and stained with 0.05% crystal violet solution for 5 minutes. After 5 minutes, the cells were washed five times with 1×PBS, and the staining intensity was measured using the Odyssey infrared imaging system.

A549 lung cancer cells [2] = assay: Migration assay of TGF-β-treated A549 cells treated with peptide; assay type: cell-based; conditions: TGF-β 5 ng/ml, 48 hours
Protocol: To determine the effects of treatment of the FoxM1 non-phosphorylated point mutant peptide on cancer cell motility in the metastatic environment treated with TGF-β, a migration assay was performed.
Specifically, 5×10^4 cells of A549 lung cancer cells were seeded in an 8.0 μm, 24 well insert, and the inserts were placed in a 24-well plate after medium with 10% fetal bovine serum (FBS) was dispensed in the 24-well plate. For the positive control, 0.5 ml of RPMI1640 (10% FBS) containing 5 ng/ml of TGF-β was dispensed, and 5 μM of the non-phosphorylated point mutant peptide was treated simultaneously. After 48 hours from cell seeding, 500 μl of 4% paraformaldehyde was dispensed into the plate, and the plate was washed three times with 1×PBS and stained with 0.05% crystal violet solution for 5 minutes. After 5 minutes, the plate was washed with 1×PBS five times, and the stained intensity was measured using the Odyssey infrared imaging system. When the stained intensity of the control group was set to 1, the relative stained intensity of each experimental group was represented in a graph.

A549 lung cancer cells [3] = assay: Wound healing assay of A549 cells expressing FoxM1 phosphorylated point mutants; assay type: cell-based; conditions: distance in the control group at 72 h set to 0%
Protocol: To observe the effects of phosphorylation point mutations on the motility of cancer cells, a wound healing assay was performed in lung cancer cells A549 expressing FoxM1 wild type (WT), phosphorylated point mutants S25E, S361E, and S715E, and a simultaneous triple-point mutation EEE protein.
Specifically, cells expressing the gene of FoxM1 point mutant by the lentivirus system were seeded into 6-well plates at 1×10^5 cells/well each. 24 hours after cell seeding, scratches were made at regular intervals using a 200 μl-pipette tip. In addition, A549 cells treated with mock as a negative control (Mock) and 5 ng/ml of TGF-β as a positive control were used. […] In addition, the distance in the control group at 72 h was set to 0%, and the relative distance was represented as a bar graph (FIG. 4G).

A549 lung cancer cells [4] = assay: EMT marker expression (immunoblot, real-time PCR) in A549 cells expressing FoxM1 WT or mutants; assay type: cell-based; conditions: FoxM1 WT
Text: To establish a stabilized cell line expressing WT, phosphorylation, and non-phosphorylated point mutants of FoxM1 in lung cancer cells, A549 cells were first infected with pLVX-Tet3G expressing lentivirus, and the infected cells were selected by treating with G418 for 5 days. The selected A549Tet3G cells were infected with lentiviruses expressing WT and phosphorylated point mutants (S25E, S361E, S715E) and non-phosphorylated point mutants (S25A, S361A, S715A) of FoxM1, and then treated with puromycin for 48 hours to establish a stabilized cell line. The established cells were treated with 2 μg/ml of doxycycline to induce expression of WT, phosphorylation, and non-phosphorylated point mutants of FoxM1, and the mRNA and protein expression levels of each FoxM1 point mutant were determined to confirm whether they were well expressed. As shown in FIG. 4A and FIG. 4B, it was confirmed that the WT and each point mutant form of FoxM1 were well expressed through mRNA and protein expression levels. It was observed that the expression levels of N-cadherin and vimentin were higher, and the expression levels of E-cadherin were lower in lung cancer cells expressing the phosphorylated form of FoxM1, specifically, phosphorylated at the phosphorylation site S25, compared to the cells expressing the non-phosphorylated form of FoxM1. In addition, when it was examined whether the expression of these phosphorylation and non-phosphorylated point mutants of FoxM1 affected cell proliferation, it was observed that it had no significant effect on cell proliferation (FIG. 4C).
To establish a stabilized cell line expressing FoxM1 WT in A549 lung cancer cells, first, pLVX-Tet3G expressing lentivirus was infected into cells, and the infected cells were selected by treating 500 μg/ml of G418 for 5 days. The selected A549^Tet3G cells were infected with lentiviruses expressing FoxM1 WT or Mock, and the stabilized cell lines were established by treating with 2 μg/ml of puromycin for 48 hours. After inducing the expression of FoxM1 WT by treating the established cells with 2 μg/ml of doxycycline, the protein expression was observed by immunoblot.

lung tissues = assay: CD68 and CD163 immunostaining and immunoblot of lung tissues of injected mice; assay type: in vivo; conditions: lung tissues of injected mice
Protocol: Additionally, the increase of macrophages around the tumor was examined by immunoblot using lung tissue lysates. […] Through the results of this study, it could be observed that the non-phosphorylated point mutant had the effect of inhibiting polarization into tumor-associated macrophages.
Furthermore, CD68, a marker for a broad range of macrophages, and CD163, a marker for tumor-associated macrophages, were analyzed in lung tissues of mice using immunostaining. It was determined that the expression of both CD68 and CD163 markers was increased in the lung tissues of mice injected with the FoxM1 WT protein over-expressed cells (FIG. 13D). Through the present results, it could be observed that there was an effect of promoting the polarization of M2 tumor-associated macrophages in lung cancer cells expressing the FoxM1 WT protein.

A549 cells [5] = assay: M2d-inducing factor mRNA in A549 cells after co-culture with THP-1 cells; assay type: cell-based; conditions: co-culture with THP-1 48 hours
Protocol: (§1) In addition, after co-culturing of human monocyte THP-1 cells and cell groups over-expressing FoxM1 point mutations for 48 hours under the conditions where the previous experiments were performed, the mRNA expression levels of M2d-inducing factors IL4, IL6, IL10, and VEGFA in A549 cells expressing FoxM1 S25E were analyzed. […] The amounts of TGFB1 and VEGFA proteins in the medium cultured for 48 h with A549 cells (4×10^4 cells/ml) expressing FoxM1 variants were measured by ELISA.

A549 cells [6] = assay: PD-L1 (CD274) mRNA in A549 cells by real-time PCR; assay type: cell-based; conditions: A549 cells expressing the protein
Protocol: To examine the mRNA expression levels of PD-1 and PD-L1, which are involved in solid tumor immune evasion, in THP-1 cells and the cells expressing the FoxM1 phosphorylated point mutant, the expression of PD-1 (CD279) mRNA, an immune evasion factor, was measured by qRT-PCR in THP-1 monocytes co-cultured with A549^S25E cells for 48 h (FIG. 7B). It was observed that the expression of mRNA of PD-L1 (CD274), an immune evasion factor, increased by 2 folds in the A549^S25E cells expressing the phosphorylated point mutant compared to the control group.

THP-1 cells = assay: M1 and M2 marker mRNA in THP-1 cells co-cultured with FoxM1-expressing A549 cells; assay type: cell-based, human; conditions: co-culture 48 h
Text: In the animal tissues, it was confirmed that both PD-L1 protein expression and CD274 mRNA expression were increased in cancer cells expressing FoxM1 (FIG. 5D, 5E). […] From the results described above, we investigated whether FoxM1 phosphorylated point mutant (S25E) affects the polarization of macrophages in the tumor microenvironment. After co-culturing human monocyte THP-1 cells and the cell groups over-expressing FoxM1 point mutants, M1 and M2 markers were examined in THP-1 cells.
Next, an expression suppression system for suppressing FoxM1 expression was established to observe whether the FoxM1 phosphorylated point mutant (S25E) directly affects polarization to M2 macrophages. First, to inhibit the expression of mRNA of FoxM1, a pLKO-puro.1-hFoxM1 plasmid was produced using a pLKO-puro.1 vector to construct shRNAs targeting nucleotide sequences at 709-729 positions in the human FoxM1 mRNA sequence. The following sequences can be used as target sequences for human FoxM1 shRNA production, and oligonucleotides with the following sequences can be used as primers for shRNA production. The gene accession number for human FoxM1 mRNA in PubMed is NM_001243088.2, and it contains 3507 bp. The following primers were used for shRNA production: 5′-ccgg-[…]-ctcgag-[…]-tttttg-3′ (forward primer) and 5′-aattcaaaaa-AGCAAG AGATGGAGGAAAAGG-ctcgag-[…]-3′ (reverse primer). Then, after purifying and concentrating each lentivirus for expression of the produced FoxM1 shRNA, it was constructed by infecting a lung cancer cell line, A549 cells expressing FoxM1, with the virus. The mRNA expression of M2 markers, CD163, CD206, and VEGFA, was examined after co-culturing lung cancer cells (4×10^4 cells/ml) with suppressed FoxM1 expression and THP-1 cells (1.2×10^5 cells/ml) for 48 h. […] When co-culturing with cancer cells expressing the FoxM1 variant S25E, it was confirmed that the M2 markers CD163, CD206, and VEGFA were all increased by 2 folds or more in THP1 cells compared to the control group (Mock_shCtrl) (FIG. 6D).
After co-culturing the FoxM1 WT protein over-expressed cancer cells (4×10^4 cells/ml) and THP-1 cells (1.2×10^5 cells/ml) for 48 h, the mRNA expression of M1 markers INOS and IL12B was not altered, while the mRNA expression of all the M2 markers IL10, CD163, CD206, TGFB1, and VEGFA was increased in the FoxM1 WT (FIG. 13A). Among them, CD206, TGFB1, and VEGFA had been known as markers for M2d-tumor-associated macrophages (M2d-TAM) (JAYASINGAM, Sharmilla Devi, et al., Frontiers in Oncology (2020) 9: 1512.).

A549 cells [7] = assay: ELISA of TGFB1 and VEGFA proteins in A549 culture medium; assay type: cell-based; conditions: medium cultured 48 h
Protocol: as §1

Molecule	cancer cell migration (stained intensity), increase compared to the control group (A549 lung cancer cells [1])	stained intensity (migration) compared to the control group (A549 lung cancer cells [2]) [folds]	relative healing distance (motility) at 72 h (A549 lung cancer cells [3]) [%]	FoxM1 expression, real-time polymerase chain reaction (A549 lung cancer cells [4]) [folds]	expression of E-cadherin, real-time polymerase chain reaction (reduced by) (A549 lung cancer cells [4]) [folds]	expression of N-cadherin, real-time polymerase chain reaction (A549 lung cancer cells [4]) [folds]	expression of vimentin, real-time polymerase chain reaction (A549 lung cancer cells [4]) [folds]	expression of E-cadherin, immunoblot (decreased by) (A549 lung cancer cells [4]; doxycycline 2 μg/ml) [folds]	expression of N-cadherin, immunoblot (A549 lung cancer cells [4]; doxycycline 2 μg/ml) [folds]	expression of vimentin, immunoblot (A549 lung cancer cells [4]; doxycycline 2 μg/ml) [folds]	expression of CD68 and CD163 markers, immunostaining (in words) (lung tissues)	mRNA expression levels of M2d-inducing factors IL4, IL6, IL10 and VEGFA in A549 cells (in words) (A549 cells [5])	mRNA expression of PD-L1 (CD274) compared to the control group (A549 cells [6])	mRNA expression of M1 markers INOS and IL12B in THP-1 cells (THP-1 cells)	mRNA expression of M2 markers IL10, CD163, CD206, TGFB1 and VEGFA in THP-1 cells (in words) (THP-1 cells)	amounts of TGFB1 and VEGFA proteins in medium (in words) (A549 cells [7])
TGF-β [reference compound]	approximately 4 fold	4	51													
B1				4.4	0.8	1.5	1.7	0.6	2.2	2.8	increased	increased	about 2.3 folds	not altered	increased	markedly increased

From patent publication US20250340881A1, “PHARMACEUTICAL COMPOSITION FOR TREATING CANCER COMPRISING FOXM1 MUTANT OR FOXM1 SHRNA” (Industry-University Cooperation Foundation Hanyang …, priority 2022, published 2025)
